Data: publication PMC9928087, “Plasmids manipulate bacterial behaviour through translational regulatory crosstalk”

T1: RsmQ (Pseudomonas fluorescens SBW25 plasmid …, UniProt UPI00015066B5 1-62)
T1 sequence: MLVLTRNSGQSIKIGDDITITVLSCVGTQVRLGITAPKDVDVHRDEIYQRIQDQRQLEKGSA

B1: PFLU3467 (ssDNA)
DNA: CGCATCATTTACATGGAAGCGAGTAATCA
B2: PFLU1516 (ssDNA)
DNA: CGCCATTCTTCAAGGGAGAGCCGTGTGGC
B3: PFLU6118 (ssDNA)
DNA: AACGGTTCAAATATTCAGAGGATCCAGCT
B4: PFLU4548 (ssDNA)
DNA: TTCTAATCGCCTAAGGAGCATTGAGATGT
B5: Bind_HP (GGA hairpin) (structured_DNA)
DNA: CCGCGCAGGAAGCGCAAAC
B6: PFLU1189 (ssDNA)
DNA: GTGAGGACTTTAATGGACGACAACAAGAA
B7: PFLU4968 (ssDNA)
DNA: TATAAGACTCGTACCCCGGAGCGCTCTCG
B8: PFLU0296 (ssDNA)
DNA: ACTCAACCAGGAATAAGGAATACAAGAAA
B9: PFLU5567 (ssDNA)
DNA: CACCAACCCTGCACGTGGAGAGAACAACA
B10: PFLU2358 (ssDNA)
DNA: CAAAAATATAAATACCCGCGGGTGAAGTC
B11: PFLU5986 (ssDNA)
DNA: TGCCCCCTTCAGATGGAGTTTCCCCCCGC
B12: PFLU4726 (ssDNA)
DNA: GAAGACTTCGGCATGGAAGCGGCGCGAAC
B13: PFLU4443 (fleQ) (ssDNA)
DNA: GGAAGTTTTACTAGGGAAGTTGCTATTGC
B14: PFLU5529 (ssDNA)
DNA: AGTCCTTTAGGCAAGGAGTTAATTGTCGT
B15: PFLU0923 (ssDNA)
DNA: AACAATAATGCACATGGAGTAGCGTCGATG
B16: PFLU3427 (ssDNA)
DNA: GGCCGCCCTCTCCGCTGATGGTCGTCTCG
B17: Full_Bind_HP (ACGGA hairpin) (structured_DNA)
DNA: CCGCGCACGGAAGCGCAAAC
B18: PFLU0998 (ssDNA)
DNA: CGCCCGTGATCCCATGGAAACTCGAAGACT
B19: PFLU4688 (ssDNA)
DNA: GACATTAATCATATGGAGACACCCTCATG
B20: PFLU5652 (ssDNA)
DNA: AAGACCAGATCCAGGGATATGACGACGCA
B21: PFLU5860 (ssDNA)
DNA: TCATTACCCTGCAGGGACCAAATCAACTG
B22: PFLU5864 (ssDNA)
DNA: CTGCGCTCCCGATCCTGGATTTTCCGGCC
B23: PFLU3378 (structured_DNA)
DNA: TTATTATTCGCCAGGGACGGCATTCGGGG
B24: PFLU2486 (ssDNA)
DNA: GAAACATTCCGAACGGAGAAAAAACTGGC
B25: PFLU4891 (ssDNA)
DNA: TCTGTAATGACCACGGAAAAAGTGAAGTA
B26: PFLU4414 (ssDNA)
DNA: TCCAGTTTAGGCTTCTAAGGAGCACACCC

What was measured:
[1] = test system: RsmQ (Pseudomonas fluorescens SBW25 plasmid pQBR103); assay: SPR; settings: SPR (ReDCaT SA chip, Biacore 8K): 10 mM HEPES, 150 mM NaCl, 3 mM EDTA, 0.05% Tween 20, pH 7.4, 20 C, RsmQ 100 and 1000 nM (Fig 4: 100-1000 nM)
[2] = test system: RsmQ H43A (Pseudomonas fluorescens SBW25 plasmid pQBR103); assay: SPR; settings: 100 nM protein; listed as None 2; SPR (ReDCaT SA chip, Biacore 8K): 10 mM HEPES, 150 mM NaCl, 3 mM EDTA, 0.05% Tween 20, pH 7.4, 20 C; RsmQ 100 and 1000 nM (Fig 4: 100-1000 nM)
[3] = test system: RsmQ R44A (Pseudomonas fluorescens SBW25 plasmid pQBR103); assay: SPR; settings: 100 nM protein; listed as None 2; SPR (ReDCaT SA chip, Biacore 8K): 10 mM HEPES, 150 mM NaCl, 3 mM EDTA, 0.05% Tween 20, pH 7.4, 20 C; RsmQ 100 and 1000 nM (Fig 4: 100-1000 nM)
RsmQ = molecular target: T1, RsmQ; assay: SPR (ReDCaT); 500 nM protein; HBS-EP+ (10 mM HEPES, 150 mM NaCl, 3 mM EDTA, 0.05% v/v Tween 20, pH 7.4), 20 C, Biacore 8K, ReDCaT SA chip; high values mean tight binding; settings: protein: recombinant; tags: C-terminal TEV site + 6xHis; chain copies: 2

| Molecule | binding signal [1] [%Rmax] | binding signal (RsmQ) [%Rmax] | other results |
| --- | --- | --- | --- |
| CGCCATTCTTCAAGGGAGAGCCGTGTGGCCCTACCCTACGTCCTCCTGC [PFLU1516] | – | – | binding signal ([1]; up to 1000 nM protein): > 50 %Rmax |
| ACTCAACCAGGAATAAGGAATACAAGAAACCTACCCTACGTCCTCCTGC [PFLU0296] | < 50 | – | – |
| TATAAGACTCGTACCCCGGAGCGCTCTCGCCTACCCTACGTCCTCCTGC [PFLU4968] | < 50 | – | – |
| CGCCCGTGATCCCATGGAAACTCGAAGACTCCTACCCTACGTCCTCCTGC [PFLU0998] | < 50 | – | – |
| AGTCCTTTAGGCAAGGAGTTAATTGTCGTCCTACCCTACGTCCTCCTGC [PFLU5529] | < 50 | – | – |
| GTGAGGACTTTAATGGACGACAACAAGAACCTACCCTACGTCCTCCTGC [PFLU1189] | < 50 | – | – |
| AACGGTTCAAATATTCAGAGGATCCAGCTCCTACCCTACGTCCTCCTGC [PFLU6118] | < 50 | – | – |
| TTCTAATCGCCTAAGGAGCATTGAGATGTCCTACCCTACGTCCTCCTGC [PFLU4548] | < 50 | – | – |
| CCGCGCAGGAAGCGCAAACCCTACCCTACGTCCTCCTGC [Bind_HP (GGA hairpin)] | – | – | binding signal ([1]; 100 nM protein, mean of 102.98 and 94.19): 98.6 %Rmax |
| GGAAGTTTTACTAGGGAAGTTGCTATTGCCCTACCCTACGTCCTCCTGC [PFLU4443 (fleQ)] | – | – | binding signal ([1]; up to 1000 nM protein): > 50 %Rmax |
| GACATTAATCATATGGAGACACCCTCATGCCTACCCTACGTCCTCCTGC [PFLU4688] | < 50 | – | – |
| TCTGTAATGACCACGGAAAAAGTGAAGTACCTACCCTACGTCCTCCTGC [PFLU4891] | < 50 | – | – |
| AACAATAATGCACATGGAGTAGCGTCGATGCCTACCCTACGTCCTCCTGC [PFLU0923] | – | – | binding signal ([1]; up to 1000 nM protein): > 50 %Rmax |
| GAAACATTCCGAACGGAGAAAAAACTGGCCCTACCCTACGTCCTCCTGC [PFLU2486] | < 50 | – | – |
| TTATTATTCGCCAGGGACGGCATTCGGGGCCTACCCTACGTCCTCCTGC [PFLU3378] | – | – | binding signal ([1]; up to 1000 nM protein, highest of the genomic oligos): > 50 %Rmax |
| AAGACCAGATCCAGGGATATGACGACGCACCTACCCTACGTCCTCCTGC [PFLU5652] | < 50 | – | – |
| GGGAAAAAATGTGGGCGGGTCATACCGCCCCTTTTTTTCCTACCCTACGTCCTCCTGC [RsmZ 127-end] | – | – | binding signal ([1]; mean of 1.178 and 0.729): 0.95 %Rmax |
| TCATTACCCTGCAGGGACCAAATCAACTGCCTACCCTACGTCCTCCTGC [PFLU5860] | < 50 | – | – |
| TGCCCCCTTCAGATGGAGTTTCCCCCCGCCCTACCCTACGTCCTCCTGC [PFLU5986] | < 50 | – | – |
| CACCAACCCTGCACGTGGAGAGAACAACACCTACCCTACGTCCTCCTGC [PFLU5567] | < 50 | – | – |
| CCGCGCACCCAGCGCAAACCCTACCCTACGTCCTCCTGC [NoBind_HP_2] | – | – | binding signal ([1]; 100 nM protein, mean of 0.445 and 0.102, listed as None 2): 0.27 %Rmax; binding signal [2]: -2.51 %Rmax; binding signal [3]: -1.89 %Rmax |
| CGCATCATTTACATGGAAGCGAGTAATCACCTACCCTACGTCCTCCTGC [PFLU3467] | < 50 | – | – |
| GAAGACTTCGGCATGGAAGCGGCGCGAACCCTACCCTACGTCCTCCTGC [PFLU4726] | – | – | binding signal ([1]; up to 1000 nM protein): > 50 %Rmax |
| B1 | – | 26.05 ± 0.116 | – |
| B2 | – | 63.68 ± 0.594 | – |

| Molecule | binding signal [1] [%Rmax] | binding signal (RsmQ) [%Rmax] | other results |
| --- | --- | --- | --- |
| B3 | – | 21.2 ± 0.215 | – |
| B4 | – | 25.35 ± 0.144 | – |
| B5 | – | 97.319 ± 0.0324 | – |
| B6 | – | 24.64 ± 0.224 | – |
| B7 | – | 17.5 ± 0.242 | – |
| B8 | – | 29.5 ± 0.904 | – |
| B9 | – | 19.8 ± 0.479 | – |
| B10 | – | 21.4 ± 0.255 | – |
| B11 | – | 23.9 ± 0.356 | – |
| B12 | – | 52.22 ± 0.504 | – |
| B13 | – | 83.36 ± 0.145 | – |
| B14 | – | 41.03 ± 0.156 | – |
| B15 | – | 76.5 ± 1.26 | – |
| B16 | – | 14.53 ± 0.0808 | – |
| B17 | – | 61.28 ± 0.301 | – |
| B18 | – | 19.2 ± 0.463 | – |
| B19 | – | 18.86 ± 0.102 | – |
| B20 | – | 24.3 ± 0.196 | – |
| B21 | – | 23.7 ± 0.45 | – |
| B22 | – | 19.55 ± 0.081 | – |
| B23 | – | 130.9 ± 0.261 | – |
| B24 | – | 19.6 ± 0.424 | – |
| B25 | – | 28.28 ± 0.104 | – |
| B26 | – | 24 ± 0.491 | – |
